Laboratory results from article PMC4002474, “Secretoglobin 1A1 and 1A1A Differentially Regulate Neutrophil Reactive Oxygen Species Production, Phagocytosis and Extracellular Trap Formation” (PLoS ONE, 2014).

B1: equine recombinant SCGB 1A1 (secretoglobin family 1A member 1) (natural protein, horse (E. caballus), UniProt Q8MKG2 22-91, looked up)
chain: EICQSFADIIQGLFLGTPASFEAAVEPFKPDADMKAATTQLKTLVDFLPKNTKDSILKLMDKIAKSPLCA
notes: SCGB 1A1 of the horse (E. caballus), mature protein without the signal peptide, cDNA from equine lung, 100% identical to NCBI JQ906260.1; Cloned in pMAL-c5X, said to add no vector-derived residues after Factor Xa cleavage; Disulfide-dependent homodimer; also called club (Clara) cell secretory protein; CCSP; source: E. coli BL21 (NEB Express), purified (amylose column, Factor Xa, FPLC SuperDex …)

Tests used:
[1] = molecular target: equine recombinant SCGB 1A1A (horse (E. caballus)); assay: non-reducing SDS-PAGE; purified recombinant protein run on SDS-PAGE in non-reducing conditions; dimers and monomers confirmed by Western blot under denaturing and mild reducing conditions
[2] = molecular target: the molecule itself; assay: as above

Molecule | stoichiometry N [1] | stoichiometry N [2]
equine recombinant SCGB 1A1A (natural protein) | 2 | –
B1 | – | 2
